5 molecules from patent US7387779B2, “Anti-angiogenic proteins and fragments and methods of use thereof” (Beth Israel Deaconess Medical Center, priority 1998, dated 2008) can be followed below.

One test has as its system HEK 293 cells. Put plainly: Proliferation of control cells, 3H-thymidine incorporation. It counts as cell-based, human. The note with it: Canstatin doses up to 40 mg/ml. The protocol: Bovine calf […] endothelial (C-PAE) cells were grown to confluence in DMEM with 10% fetal calf serum (FCS) and kept contact inhibited for 48 hours. Cells were harvested by trypsinization (Life Technologies/Gibco BRL, Gaithersberg, Md., USA) at 37° C. for 5 minutes. A suspension of 12,500 cells in DMEM with 0.5% FCS was added to each well of a 24-well plate coated with 10 μg/ml fibronectin. The cells were incubated for 24 hours at 37° C. C. with 5% CO2 and 95% humidity. Medium was removed, and replaced with DMEM containing 0.5% FCS (unstimulated) or 10% FCS (stimulated and treated cells). 786-O, PC-3 and HEK 293 cells served as controls and were also grown to confluency, trypsinized and plated in the same manner. Cells were treated with concentrations of Canstatin or endostatin ranging from 0.025 to 40 mg/ml in triplicate. In thymidine incorporation experiments, all wells received […] of ^3H-thymidine at the time of treatment. After 24 hours, medium was removed and the wells were washed 3 times with PBS. Radioactivity was extracted with 1N NaOH and added to a scintillation vial containing 4 ml of ScintiVerse II (Fisher Scientific, Pittsburgh, Pa., USA) solution. Thymidine incorporation was measured using a scintillation counter.

Another test relates to PC-3 cells. The test is described as above. As to conditions: non-endothelial control; Canstatin up to 40 mg/ml, Tumstatin up to 20 mg/ml. It counts as cell-based, human. The protocol:
(§1) C-PAE cells were grown to confluence in DMEM with 10% fetal calf serum (FCS) and kept contact inhibited for 48 hours. Control cells were 786-O (renal carcinoma) cells, PC-3 cells, HPEC cells, and A-498 (renal carcinoma) cells. Cells were harvested with trypsinization (Life Technologies/Gibco BRL, Gaithersburg, Md., USA) at 37° C. for five minutes. […] The cells were incubated for 24 hours at 37° C. with 5% CO2 and 95% humidity. Medium was removed and replaced with DMEM containing 0.5% FCS and 3 ng/ml bFGF (R&D Systems, Minneapolis, Minn., USA). Unstimulated controls received no bFGF. […] All wells received 1 μCurie of ^3H-thymidine at the time of treatment. After 24 hours, medium was removed and the wells were washed with PBS. Cells were extracted with 1N NaOH and added to a scintillation vial containing 4 ml of ScintiVerse II (Fisher Scientific, Pittsburgh, Pa., USA) solution. Thymidine incorporation was measured using a scintillation counter. The results are shown in FIGS. 3A and 3B, which are a pair of graphs showing incorporation of ^3H-thymidine into C-PAE cells treated with varying amounts of Arresten (FIG. 3A) or endostatin (FIG. 3B). Arresten appeared to inhibit thymidine incorporation in C-PAE as well as did endostatin. Behavior of control cells treated with Arresten and endostatin is also shown in FIG. 4A, 4B, 4C, and 4D, with Arresten having little effect on 786-O cells (FIG. 4A), PC-3 cells (FIG. 4B), or HPEC cells (FIG. 4C). Endostatin had little effect on A-498 cells (FIG. 4D). All groups in FIGS. 3 and 4 represent triplicate samples. […] (C-PAE) cells were grown to confluence in DMEM with 10% fetal calf serum (FCS) and kept contact inhibited for 48 hours. Cells were harvested by trypsinization (Life Technologies/Gibco BRL, Gaithersberg, Md., USA) at 37° C. for 5 minutes. […] The cells were incubated for 24 hours at 37° C. C. with 5% CO2 and 95% humidity. Medium was removed, and replaced with DMEM containing 0.5% FCS (unstimulated) or 10% FCS (stimulated and treated cells). 786-O, PC-3 and HEK 293 cells served as controls and were also grown to confluency, trypsinized and plated in the same manner. Cells were treated with concentrations of Canstatin or endostatin ranging from 0.025 to 40 mg/ml in triplicate. In thymidine incorporation experiments, all wells received […] of ^3H-thymidine at the time of treatment. After 24 hours, medium was removed and the wells were washed 3 times with PBS. Radioactivity was extracted with 1N NaOH and added to a scintillation vial containing 4 ml of ScintiVerse II (Fisher Scientific, Pittsburgh, Pa., USA) solution. Thymidine incorporation was measured using a scintillation counter. […]

Test [1] relates to 786-O (renal carcinoma) cells. The test is described as above. It counts as cell-based, human. The note with it: non-endothelial control; Canstatin up to 40 mg/ml, Tumstatin up to 20 mg/ml. The protocol: as §1
A further test relates to HUVECs. Put plainly: Endothelial tube formation on Matrigel. It counts as cell-based, human. The protocol:
Tumstatin-44-131 was also found to inhibit endothelial tube formation, as shown by Matrigel assay. The Matrigel assay was performed as described in the examples above. Briefly, HUVECS were allowed to form tubes on Matrigel-coated plates incubated with or without 5 μg/ml E. Coli-expressed Tumstatin-44-131. BSA-treated cells and yeast-expressed human endostatin (5 and 20 μg/ml) was used as controls. […] The average percentage tube branch formation after treatment was 22.7±3.1 for the BSA treatment, 2.1±2.0 for Tumstatin-44-131 treatment, while the 5 μg/ml and 20 μg/ml endostatin produced an average of 19.4±3.0 and 7.5±6.0, respectively.

In a further test the test system is MDA-MB435 tumors. Put plainly: MDA-MB435 breast cancer carcinoma orthotopic model (Example 41). As to conditions: 5 mg or 20 mg per kilogram. It counts as in vivo.
The next test concerns C-PAE cells. Put plainly: Cell cycle analysis (propidium iodide, flow cytometry). It counts as cell-based, bovine. As to conditions: 10% FBS. (Flow cytometry measures light scatter and fluorescence of single cells or particles in a stream.)
Another test has as its system bovine endothelial cells. Put plainly: Cap-dependent (LUC) / cap-independent (CAT) translation reporter. It counts as cell-based. As to conditions: 4.5 μM; 21 hours.

B1: Canstatin: NC1 domain of the α2 chain of Type IV collagen (SEQ ID NO:6) (protein, listed as Homo sapiens)
chain: VSIGYLLVKHSQTDQEPMCPVGMNKLWSGYSLLYFEGQEKAHNQDLGLAGSCLARFSTMPFLYCNPGDVCYYASRNDKSYWLSTTAPLPMMPVAEDEIKPYISRCSVCEAPAIAIAVHSQDVSIPHCPAGWRSLWIGYSFLMHTAAGDEGGGQSLVSPGSCLEDFRATPFIECNGGRGTCHYYANKYSFWLTTIPEQSFQGSPSADTLKAGLIRTHISRCQVCMKNL
On to B1, for which the effect on proliferation entry (in the test with HEK 293 cells; in the test on PC-3 cells; in test [1]) was “No significant effect” in each case.

B2: Tumstatin-44-131: residues 44 to 131 of full-length Tumstatin (SEQ ID NO:33) (protein)
chain: FSFLFVQGNQRAHGQDLGTLGSCLQRFTTMPFLFCNVNDVCNFASRNDYSYWLSTPALMPMNMAPITGRALEPYISRCTVCEGPAIAI
modifications: Tumstatin-45-132 (amino acids 45-132 of SEQ ID NO10)
As for B2, the “average percentage tube branch formation” value in the test with HUVECs (5 μg/ml, BSA 22.7±3.1) was 2.1±2.0.

B3: Tum-1: residues 54 to 244 of Tumstatin, lacking the N-terminal 53 amino acids (SEQ ID NO:22) (protein)
chain: QRAHGQDLGTLGSCLQRFTTMPFLFCNVNDVCNFASRNDYSYWLSTPALMPMNMAPITGRALEPYISRCTVCEGPAIAIAVHSQTTDIPPCPHGWISLWKGFSFIMFTSAGSEGTGQALASPGSCLEEFRASPFLECHGRGTCNYYSNSYSFWLASLNPERMFRKPIPSTVKAGELEKIISRCQVCMKKRH
modifications: Tum-1 (Tumstatin N-53) (amino acids 54-244 of SEQ ID NO10)
Take B3: in the test on MDA-MB435 tumors, the anti-tumor activity entry is given as “substantial anti-tumor activity”. For the same molecule, the “IC50, inhibition of cell cycle progression” value in the test with C-PAE cells is given as “about 5 μg/ml”.

B4: Tumstatin: NC1 domain of the α3 chain of type IV collagen, residues 1-244 (SEQ ID NO:10) (protein, listed as Homo sapiens)
chain: GLKGKRGDSGSPATWTTRGFVFTRHSQTTAIPSCPEGTVPLYSGFSFLFVQGNQRAHGQDLGTLGSCLQRFTTMPFLFCNVNDVCNFASRNDYSYWLSTPALMPMNMAPITGRALEPYISRCTVCEGPAIAIAVHSQTTDIPPCPHGWISLWKGFSFIMFTSAGSEGTGQALASPGSCLEEFRASPFLECHGRGTCNYYSNSYSFWLASLNPERMFRKPIPSTVKAGELEKIISRCQVCMKKRH
As for B4, the effect on proliferation result (in the test with PC-3 cells; in test [1]) was “no significant anti-proliferative effect” throughout.

B5: endostatin: tumor associated angiogenesis inhibitor used as comparator (protein, UniProt P39060 1572-1754, looked up)
Endostatin: HSHRDFQPVLHLVALNSPLSGGMRGIRGADFQCFQQARAVGLAGTFRAFLSSRLQDLYSIVRRADRAAVPIVNLKDELLFPSWEALFSGSEGPLKPGARIFSFDGKDVLRHPTWPQKSVWHGSDPNGRRLTESYCETWRTEAPSATGQASSLLGGRLLGQSAASCHHAYIVLCIENSFMTASK
modifications: Endostatin
Take B5: the “average percentage tube branch formation” value with HUVECs (5 μg/ml, BSA 22.7±3.1) is listed as 19.4±3.0; in the test with HUVECs (20 μg/ml endostatin), 7.5±6.0. The “IC50, inhibition of cell cycle progression” value in the test on C-PAE cells was “no activity”. In the test with bovine endothelial cells, the “decrease of cap-dependent translation of LUC” value is “did not affect cap-dependent translation”.
